What was measured:
[1] = biological target: T1, Hfq;Crc (Pseudomonas aeruginosa;Pseudomonas aeruginosa) (UniProt Q9HUM0+Q51380); experiment: EMSA; conditions: EMSA: 20 mM Tris-HCl pH 8.0, 40 mM NaCl, 10 mM KCl, 1 mM MgCl2; 200 nM RNA; 15 min at 37 C; 4% PAA gel in 1x TBE at 4 C, SYBR gold
[2] = biological target: T1, Hfq;Crc (Pseudomonas aeruginosa;Pseudomonas aeruginosa); experiment: cryo-EM; conditions: EMSA: 20 mM Tris-HCl pH 8.0, 40 mM NaCl, 10 mM KCl, 1 mM MgCl2; 200 nM RNA; 15 min at 37 C; 4% PAA gel in 1x TBE at 4 C, SYBR gold

Sequence | binding [1] | binding [2]
GGCUGAGGAGGCUUUACGACGGGCCCCGGGGCGCAUGCCGACGACGCGGCGGCCCGACAAUAAAAACAAAUCAUGGAGUAAGAGAAUGAUCAGAAUGGCGCUCAAGCCACUGGUAGCG [estA118] | binds | binds
GGGCCUUUUUUCGUCCCGAAAAAAUAACAACAAGAGGUGAUAUCCAUGCGUCACGGCGAUAUUUCCAGCAGCAACGACACCGUCGGAGUGGCGGUGGUCAACUAC [amiE105] | binds | binds
GGAACGCAAACGUUUGCGUCUGGAUAAUCUCCUGGAAAAGCCUCAAUACAACGAUAAGAAAAGCUGGAGGAUACACCAUGAAGCGGGUCGCUUCCCGGCGCCUGUUGGCU [rbsB110] | binds | binds

From PMC9890229
